Source: PMC10692146 (2023)
Where no end group is shown, it is not given here.

Tests used:
[1] = target: T1, reduced p38α (MAPK14), recombinant mouse protein kept with reducing agent (DTT or TCEP) (mouse, UniProt P47811 1-360); assay: ITC
[2] = target: T1, reduced p38α (MAPK14), recombinant …; assay: ITC; oxidized p38α re-reduced by dialysis with TCEP

T1 sequence (P47811 whole entry): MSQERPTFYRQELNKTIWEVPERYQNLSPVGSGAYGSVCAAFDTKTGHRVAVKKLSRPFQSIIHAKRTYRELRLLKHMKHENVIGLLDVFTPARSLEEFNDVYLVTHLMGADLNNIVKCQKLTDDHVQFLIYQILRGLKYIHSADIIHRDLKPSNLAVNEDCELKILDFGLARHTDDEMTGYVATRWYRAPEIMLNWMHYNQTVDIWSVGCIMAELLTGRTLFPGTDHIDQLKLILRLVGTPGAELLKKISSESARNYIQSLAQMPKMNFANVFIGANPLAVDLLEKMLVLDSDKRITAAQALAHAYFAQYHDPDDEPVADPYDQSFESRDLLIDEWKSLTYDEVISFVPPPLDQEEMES

Kd [1]: 1200 nM | Kd [2]: 2660 nM
Binder: RVYPVSVPYSSAQSTSKTSVTLSLVMPSQ (also: FITC label, end not given here) [FITC-TAB1 peptide (amino acids 384-412 of TAB1)]
